Assay results: patent US20160136236A1 (MODERNA THERAPEUTICS, published 2016)

Molecular target: T1, BODIPY-labeled LDL (low density lipoprotein) (UniProt P04114 28-4563, BODIPY fluorescent label, site not stated)
T1 construct: A lipoprotein particle (protein and lipid), not a pure protein; also called BODIPY-LDL; LDL-BODIPY
Assay: FACS; increasing amounts of BODIPY-LDL for 1 h at 37 C on HEK293 cells transfected with LDLR mRNA

Kd: ~0.06 µg/mL
B1: wild type (WT) human low density lipoprotein receptor (LDLR) (receptor)
chain: not shown
notes: also called LDL receptor; wild-type LDLR
